From patent US20180148477A1 (published 2018)
Bridge positions count the residues as written; N and C are the ends. Square brackets hold non-standard residues; d marks the D form. Ends that are not written are not given here. Bip = N[C@@H](Cc1ccc(-c2ccccc2)cc1)C(=O)O; 1Nal = N[C@@H](Cc1cccc2ccccc12)C(=O)O; 2Nal = N[C@@H](Cc1ccc2ccccc2c1)C(=O)O; d1Nal = N[C@H](Cc1cccc2ccccc12)C(=O)O; d2Nal = N[C@H](Cc1ccc2ccccc2c1)C(=O)O; NMeR = CN[C@@H](CCCNC(=N)N)C(=O)O; hPhe = N[C@@H](CCc1ccccc1)C(=O)O; β3hE = N[C@@H](CCC(=O)O)CC(=O)O; Aic = NC1(C(=O)O)Cc2ccccc2C1; NMeK = CN[C@@H](CCCCN)C(=O)O; Pen = CC(C)(S)[C@H](N)C(=O)O; dNMeK = CN[C@H](CCCCN)C(=O)O

How the values were obtained:
[1] = target: α4β1 (R&D Systems #5668-A4) (UniProt P13612); assay: competition ELISA vs VCAM-1
[2] = target: rh integrin α4β7 (R&D Systems #5397-A30) (human) (UniProt P13612); assay: competition ELISA vs MAdCAM-1
[3] = target: human α4β7 integrin on cells (human) (UniProt P13612); assay: RPMI8866 adhesion to MAdCAM-1

Binder | IC50 [1] | IC50 [2] | IC50 [3]
Ac-[Pen][NMeR]SDTL[Pen][1Nal]E[dNMeK]-NH2 (disulfide 1-7; SMILES CC(=O)N[C@@H]1C(=O)N(C)[C@@H](CCCNC(=N)N)C(=O)N[C@@H](CO)C(=O)N[C@@H](CC(=O)O)C(=O)N[C@@H]([C@@H](C)O)C(=O)N[C@@H](CC(C)C)C(=O)N[C@H](C(=O)N[C@@H](Cc2cccc3ccccc23)C(=O)N[C@@H](CCC(=O)O)C(=O)N(C)[C@H](CCCCN)C(N)=O)C(C)(C)SSC1(C)C) [SEQ ID NO: 18] | > 500 nM | > 10 nM | 
Ac-[Pen][NMeR]SDTL[Pen][1Nal][dE][dK]-NH2 (disulfide 1-7; SMILES CC(=O)N[C@@H]1C(=O)N(C)[C@@H](CCCNC(=N)N)C(=O)N[C@@H](CO)C(=O)N[C@@H](CC(=O)O)C(=O)N[C@@H]([C@@H](C)O)C(=O)N[C@@H](CC(C)C)C(=O)N[C@H](C(=O)N[C@@H](Cc2cccc3ccccc23)C(=O)N[C@H](CCC(=O)O)C(=O)N[C@H](CCCCN)C(N)=O)C(C)(C)SSC1(C)C) [SEQ ID NO: 8] |  | > 25 nM | 
Ac-[Pen][NMeR]SDTL[Pen][d1Nal]E[dK]-NH2 (disulfide 1-7; SMILES CC(=O)N[C@@H]1C(=O)N(C)[C@@H](CCCNC(=N)N)C(=O)N[C@@H](CO)C(=O)N[C@@H](CC(=O)O)C(=O)N[C@@H]([C@@H](C)O)C(=O)N[C@@H](CC(C)C)C(=O)N[C@H](C(=O)N[C@H](Cc2cccc3ccccc23)C(=O)N[C@@H](CCC(=O)O)C(=O)N[C@H](CCCCN)C(N)=O)C(C)(C)SSC1(C)C) [SEQ ID NO: 10] |  | > 10 nM | 
Ac-[Pen][NMeR]SDTL[Pen][2Nal]Y[dK]-NH2 (disulfide 1-7; also: dimer via DIG) [SEQ ID NO: 23] | > 100 nM |  | < 10 nM
Ac-[Pen][NMeR]SDTL[Pen][1Nal][dE][dK]-NH2 (disulfide 1-7; also: dimer via DIG) [SEQ ID NO: 32] | > 100 nM | < 10 nM | > 10 nM
Ac-[Pen][NMeR]SDTL[Pen][1Nal][dE][dNMeK]-NH2 (disulfide 1-7 (inferred)) [SEQ ID NO: 12] |  | > 25 nM | 
Ac-[Pen][NMeR]SDTL[Pen][1Nal]E[dK]-NH2 (disulfide 1-7; also: dimer via DIG) [SEQ ID NO: 24] | > 100 nM | < 10 nM | < 10 nM
Ac-[Pen][NMeR]SDTL[Pen][2Nal][dE][dK]-NH2 (disulfide 1-7; also: dimer via DIG) [SEQ ID NO: 29] |  | < 10 nM | > 10 nM
Ac-[Pen][NMeR]SDTL[Pen][2Nal]E[dNMeK]-NH2 (disulfide 1-7 (inferred)) [SEQ ID NO: 15] |  | < 10 nM | 
Ac-[Pen][NMeR]SDTL[Pen][2Nal][dE][dK]-NH2 (disulfide 1-7; SMILES CC(=O)N[C@@H]1C(=O)N(C)[C@@H](CCCNC(=N)N)C(=O)N[C@@H](CO)C(=O)N[C@@H](CC(=O)O)C(=O)N[C@@H]([C@@H](C)O)C(=O)N[C@@H](CC(C)C)C(=O)N[C@H](C(=O)N[C@@H](Cc2ccc3ccccc3c2)C(=O)N[C@H](CCC(=O)O)C(=O)N[C@H](CCCCN)C(N)=O)C(C)(C)SSC1(C)C) [SEQ ID NO: 9] |  | > 10 nM | > 100 nM
Ac-[Pen][NMeR]SDTL[Pen][d2Nal]E[dK]-NH2 (disulfide 1-7; SMILES CC(=O)N[C@@H]1C(=O)N(C)[C@@H](CCCNC(=N)N)C(=O)N[C@@H](CO)C(=O)N[C@@H](CC(=O)O)C(=O)N[C@@H]([C@@H](C)O)C(=O)N[C@@H](CC(C)C)C(=O)N[C@H](C(=O)N[C@H](Cc2ccc3ccccc3c2)C(=O)N[C@@H](CCC(=O)O)C(=O)N[C@H](CCCCN)C(N)=O)C(C)(C)SSC1(C)C) [SEQ ID NO: 11] |  | > 25 nM | 
Ac-[Pen][NMeR]SDTL[Pen][2Nal][dE][dNMeK]-NH2 (disulfide 1-7 (inferred)) [SEQ ID NO: 13] |  | > 10 nM | > 100 nM
Ac-[Pen][NMeR]SDTL[Pen][2Nal][hPhe][dK]-NH2 (disulfide 1-7; SMILES CC(=O)N[C@@H]1C(=O)N(C)[C@@H](CCCNC(=N)N)C(=O)N[C@@H](CO)C(=O)N[C@@H](CC(=O)O)C(=O)N[C@@H]([C@@H](C)O)C(=O)N[C@@H](CC(C)C)C(=O)N[C@H](C(=O)N[C@@H](Cc2ccc3ccccc3c2)C(=O)N[C@@H](CCc2ccccc2)C(=O)N[C@H](CCCCN)C(N)=O)C(C)(C)SSC1(C)C) [SEQ ID NO: 50] |  | > 10 nM | 

The next lines start with the values.

IC50 [1] | IC50 [2] | IC50 [3] | Binder
> 1000 nM | < 10 nM | < 10 nM | Ac-[Pen][NMeR]SDTL[Pen][2Nal][β3hE][dK]-NH2 (disulfide 1-7 (inferred); also: homodimer via DIG) [SEQ ID NO: 137]
 | > 25 nM |  | Ac-[Pen][NMeR]SDTL[Pen]W[Aic][dK]-NH2 (disulfide 1-7; SMILES CC(=O)N[C@@H]1C(=O)N(C)[C@@H](CCCNC(=N)N)C(=O)N[C@@H](CO)C(=O)N[C@@H](CC(=O)O)C(=O)N[C@@H]([C@@H](C)O)C(=O)N[C@@H](CC(C)C)C(=O)N[C@H](C(=O)N[C@@H](Cc2c[nH]c3ccccc23)C(=O)NC2(C(=O)N[C@H](CCCCN)C(N)=O)Cc3ccccc3C2)C(C)(C)SSC1(C)C) [SEQ ID NO: 51]
 | > 10 nM |  | Ac-[Pen][NMeR]SDTL[Pen][2Nal][dK]-NH2 (disulfide 1-7; SMILES CC(=O)N[C@@H]1C(=O)N(C)[C@@H](CCCNC(=N)N)C(=O)N[C@@H](CO)C(=O)N[C@@H](CC(=O)O)C(=O)N[C@@H]([C@@H](C)O)C(=O)N[C@@H](CC(C)C)C(=O)N[C@H](C(=O)N[C@@H](Cc2ccc3ccccc3c2)C(=O)N[C@H](CCCCN)C(N)=O)C(C)(C)SSC1(C)C) [SEQ ID NO: 88]
 | 250 nM | > 10000 nM | [Pen][NMeR]SDTL[Pen][2Nal]E (disulfide 1-7 (inferred); not fully specified (bridges); printed as Cyclo-[Pen-N-Me-R-S-D-T-L-Pen-2-Nal-E], Pen-Pen disulfide) [SEQ ID NO: 143]
 | > 10 nM | > 10 nM | Ac-[Pen][NMeR]SDTL[Pen][2Nal]E[NMeK]-NH2 (disulfide 1-7 (inferred); also: homodimer via DIG) [SEQ ID NO: 138]
> 100 nM | < 10 nM | < 10 nM | Ac-[Pen][NMeR]SDTL[Pen][Bip]E[dK]-NH2 (disulfide 1-7 (inferred); also: homodimer via DIG) [SEQ ID NO: 134]
